Test results: the supplement of paper PMC7125110
± gives the standard error. This sample holds only a part of the variants without activity.

B1: glmS ribozyme (parent)
chain: AUAAAAGCGCCAGAACUACAGAAAUGUAGUUGACGAGGAGGAGGUUUAUCGAAUUUUCGGCGGAUGCCUCCAAA

Assays:
Settings in all cases: with glucosamine-6-phosphate
glucosamine-6-phosphate [1] = variants of: B1; assay: self-cleavage kobs at 640 uM GlcN6P; higher = faster cleavage; RNA array
Method in brief: (§1)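 Barcoded ribozyme variants were transcribed in situ on sequenced MiSeq chips by E. coli RNA polymerase. At 37 °C, a hybridised Cy3 probe tracked them while glucosamine-6-phosphate (40 μM to 10 mM) in HEPES/KCl/Mg(OAc)2 buffer flowed in and tiles were imaged over ~14 h. Per-tile medians of signals normalised to baseline and to non-cleaving reference variants were fit to one- or two-exponential decays, giving kobs. kcat and KM came from weighted Michaelis–Menten fits across concentrations.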

glucosamine-6-phosphate [2] = variants of: B1; assay: self-cleavage kobs at 160 uM GlcN6P; higher = faster cleavage; RNA array
Method in brief: as §1

glucosamine-6-phosphate [3] = variants of: B1; assay: self-cleavage kobs at 2500 uM GlcN6P; higher = faster cleavage; RNA array
Method in brief: as §1

glucosamine-6-phosphate [4] = variants of: B1; assay: self-cleavage kobs at 10000 uM GlcN6P; higher = faster cleavage; RNA array
Method in brief: as §1

| Variant | self-cleavage kobs at 640 uM GlcN6P (glucosamine-6-phosphate [1]) | self-cleavage kobs at 160 uM GlcN6P (glucosamine-6-phosphate [2]) | self-cleavage kobs at 2500 uM GlcN6P (glucosamine-6-phosphate [3]) | self-cleavage kobs at 10000 uM GlcN6P (glucosamine-6-phosphate [4]) |
| --- | --- | --- | --- | --- |
| G7A A33C A39U | < 1e-05 s⁻¹ | – | – | – |
| A53U G62U A64U | < 1e-05 s⁻¹ | < 1e-05 s⁻¹ | < 1e-05 s⁻¹ | – |
| G7C G41U C67G | < 1e-05 s⁻¹ | – | – | – |
| C8G A12U G43A C67A | < 1e-05 s⁻¹ | – | < 1e-05 s⁻¹ | – |
| G7A A33G C68G | 0.00031 ± 0.00013 s⁻¹ | – | 6.13e-05 ± 2.5e-05 s⁻¹ | – |
| A6U C11U U31C G40A G44A U55A | < 1e-05 s⁻¹ | – | – | – |
| C8G C11A A39C | < 1e-05 s⁻¹ | – | – | – |
| G7U G35C A39U U65C | < 1e-05 s⁻¹ | – | – | – |
| C58U C68A C71G | 4.72e-05 ± 2.2e-05 s⁻¹ | 8.62e-05 ± 2.6e-05 s⁻¹ | – | – |
| C50G U56A C58G | 0.00041 ± 0.00014 s⁻¹ | 9.66e-05 ± 4.4e-05 s⁻¹ | 6.12e-05 ± 2.4e-05 s⁻¹ | – |
| G7U C34U A52U | < 1e-05 s⁻¹ | – | < 1e-05 s⁻¹ | – |
| G7U C11G A64U | < 1e-05 s⁻¹ | – | < 1e-05 s⁻¹ | < 1e-05 s⁻¹ |
| A6C C8G U54C | < 1e-05 s⁻¹ | – | – | – |
| G7C G32C G59A | < 1e-05 s⁻¹ | – | – | – |
| G7A A33C G66C | < 1e-05 s⁻¹ | – | – | – |
| C8A G40A A42U G62C | < 1e-05 s⁻¹ | – | – | – |
| A6G C50U C61U | < 1e-05 s⁻¹ | – | < 1e-05 s⁻¹ | – |
| A6C C10A A15G C16G G63A | < 1e-05 s⁻¹ | – | < 1e-05 s⁻¹ | < 1e-05 s⁻¹ |
| A53C G63C | – | < 1e-05 s⁻¹ | < 1e-05 s⁻¹ | < 1e-05 s⁻¹ |
| A6G A36U A42G G44U G60C | < 1e-05 s⁻¹ | – | – | – |

| Variant | self-cleavage kobs at 640 uM GlcN6P (glucosamine-6-phosphate [1]) | self-cleavage kobs at 160 uM GlcN6P (glucosamine-6-phosphate [2]) | self-cleavage kobs at 2500 uM GlcN6P (glucosamine-6-phosphate [3]) | self-cleavage kobs at 10000 uM GlcN6P (glucosamine-6-phosphate [4]) |
| --- | --- | --- | --- | --- |
| C8G C11U A36U | < 1e-05 s⁻¹ | – | < 1e-05 s⁻¹ | – |
| C50A C67U U69C | – | 5.97e-05 ± 1.8e-05 s⁻¹ | 0.000119 ± 3.2e-05 s⁻¹ | – |
| A6G C8U G37C U54C U69C | < 1e-05 s⁻¹ | – | < 1e-05 s⁻¹ | – |
| A6C A14C U31C A36G A48G | < 1e-05 s⁻¹ | – | – | < 1e-05 s⁻¹ |
| A6G A36C G37U G40A C61A U65A | < 1e-05 s⁻¹ | – | < 1e-05 s⁻¹ | – |
| U54A U57A U65C | – | < 1e-05 s⁻¹ | – | – |
| A52G C67U C71G | 7.65e-05 ± 1.9e-05 s⁻¹ | 4.58e-05 ± 2.3e-05 s⁻¹ | 0.000162 ± 5.9e-05 s⁻¹ | – |
| U57C G62C | < 1e-05 s⁻¹ | < 1e-05 s⁻¹ | < 1e-05 s⁻¹ | < 1e-05 s⁻¹ |
| G7A C8U U31C A52C | < 1e-05 s⁻¹ | – | < 1e-05 s⁻¹ | – |
| G7C G9U C11G C16G U30G G43U G44U C61U | < 1e-05 s⁻¹ | – | < 1e-05 s⁻¹ | < 1e-05 s⁻¹ |
| C8A A12U A15U C70A | < 1e-05 s⁻¹ | – | – | – |
| A6G A52U G60U | < 1e-05 s⁻¹ | – | < 1e-05 s⁻¹ | – |
| A53G G63U | < 1e-05 s⁻¹ | < 1e-05 s⁻¹ | < 1e-05 s⁻¹ | – |
| A6G C8U U31G C71G | < 1e-05 s⁻¹ | – | – | – |
| G60C C61G | < 1e-05 s⁻¹ | < 1e-05 s⁻¹ | < 1e-05 s⁻¹ | – |
| G7C C11G G41A | < 1e-05 s⁻¹ | – | < 1e-05 s⁻¹ | – |
| A48U G60U C68U | – | < 1e-05 s⁻¹ | < 1e-05 s⁻¹ | – |
| A52G C68G U69C | – | 5.98e-05 ± 2.7e-05 s⁻¹ | – | – |
| G7U U46C U65A | < 1e-05 s⁻¹ | – | < 1e-05 s⁻¹ | – |
| U57A G62C | < 1e-05 s⁻¹ | < 1e-05 s⁻¹ | – | < 1e-05 s⁻¹ |

| Variant | self-cleavage kobs at 640 uM GlcN6P (glucosamine-6-phosphate [1]) | self-cleavage kobs at 160 uM GlcN6P (glucosamine-6-phosphate [2]) | self-cleavage kobs at 2500 uM GlcN6P (glucosamine-6-phosphate [3]) | self-cleavage kobs at 10000 uM GlcN6P (glucosamine-6-phosphate [4]) |
| --- | --- | --- | --- | --- |
| C8G C50G C61U A64U | 0.00078 ± 0.00019 s⁻¹ | – | 0.00023 ± 6.3e-05 s⁻¹ | – |
| G7A G13C A14G U69G | < 1e-05 s⁻¹ | – | < 1e-05 s⁻¹ | – |
| U54A U56C G66A C70U | 0.000185 ± 4.1e-05 s⁻¹ | 7.54e-05 ± 1.5e-05 s⁻¹ | 0.000395 ± 9.4e-05 s⁻¹ | – |
| G7U G40A G43C | < 1e-05 s⁻¹ | – | < 1e-05 s⁻¹ | – |
| G62A G63U C67U | < 1e-05 s⁻¹ | < 1e-05 s⁻¹ | – | – |
| C8A C10A C34A | < 1e-05 s⁻¹ | – | – | – |
| G7U G9U G43U | < 1e-05 s⁻¹ | – | < 1e-05 s⁻¹ | – |
| A52G A64C | < 1e-05 s⁻¹ | < 1e-05 s⁻¹ | < 1e-05 s⁻¹ | – |
| C8G A12U C70U | < 1e-05 s⁻¹ | – | < 1e-05 s⁻¹ | – |
| A6U C16U G43U U65G | < 1e-05 s⁻¹ | – | – | – |
| A6G U54A U57G | < 1e-05 s⁻¹ | – | – | – |
| G7A G13C G62U | < 1e-05 s⁻¹ | – | – | – |
| G7U A12G C16U | < 1e-05 s⁻¹ | – | < 1e-05 s⁻¹ | – |
| A6C G38A A52U C70U | < 1e-05 s⁻¹ | – | – | – |
| A48C U69A | < 1e-05 s⁻¹ | < 1e-05 s⁻¹ | – | – |
| A6U G35A G43U | < 1e-05 s⁻¹ | – | < 1e-05 s⁻¹ | – |
| A6C G38U G62C C70U | < 1e-05 s⁻¹ | – | – | – |
| G7A G51A C58A | < 1e-05 s⁻¹ | – | < 1e-05 s⁻¹ | – |
| A6C G13A G63A | < 1e-05 s⁻¹ | – | < 1e-05 s⁻¹ | – |
